Data on 13 molecules can be found in patent publication US20250376535A1 (BEIJING STARMAB BIOMED TECHNOLOGY, published 2025).

The target of assay [1] is T1, recombinant human OX40-Fc (human, UniProt P43489 29-214).
T1 construct: also called rh-OX40-Fc; human OX40 hFC (R & D systems)
T1 sequence: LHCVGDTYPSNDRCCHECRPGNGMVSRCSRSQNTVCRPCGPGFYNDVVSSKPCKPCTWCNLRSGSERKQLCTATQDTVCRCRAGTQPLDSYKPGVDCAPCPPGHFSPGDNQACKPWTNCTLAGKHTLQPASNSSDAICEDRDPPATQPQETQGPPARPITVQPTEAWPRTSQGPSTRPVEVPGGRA
As to the kind of experiment: BLI, VHH-His on anti-His tips, OX40 hFc in solution.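 Further: kinetics recorded at 30 °C in PBS pH 7.2, with 200 s of association followed by dissociation monitored in PBS lacking the OX40 protein.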
Procedure: Bio-Layer Interferometry (BLI) kinetic binding analysis. […] Affinity measurements were performed with Gator equipped with Anti-Penta-His capture (HIS1K) biosensor tips. The assay was performed at 30° C. in 1×PBS buffer (Gibco®, PBS pH7.2). Samples were agitated at 1000 rpm. Prior to analysis, sensors were humidified for 15 min. Purified anti-OX40 VHH was tested for its binding capacity with HIS1K sensor tips. Tips were loaded using 20 μg/ml of anti-OX40 VHH. Loading proceeded for 300 s resulting in capture levels of between 1.8 and 2 nm. […] Association was initiated and monitored for 200 sec, after which tips were transferred to 1×PBS buffer without Factor protein (Gibco, PBS pH 7.2), in order to monitor dissociation. Sensor data was collected throughout the experiments, processed, and analyzed using the Gator data analysis software.

Assay [2] deals with T1, recombinant human OX40-Fc. As to the kind of experiment: ELISA, OX40-Fc coated, VHH at 40 nM.
Procedure: (§1) After four times washing with PBST, the plate was incubated with detecting antibody anti-his-HRP (1:4000 dilution) 100 μl per well for one hour with shaking at 60 rpm. The plate was developed with 100 μL of TMB per well in the dark and then stopped by 50 μL of stop solution per well. […] Data was analyzed using GraphPad Prisma 9.1.
Assay [3] addresses T1, recombinant human OX40-Fc. As to the kind of experiment: ELISA, OX40-Fc coated, VHH at 1000 nM.
Procedure: as §1
Assay [4] has as its target T1, recombinant human OX40-Fc. As to the kind of experiment: ELISA, OX40-Fc coated, VHH at 1.6 nM.
Procedure: as §1
Assay [5] deals with T1, recombinant human OX40-Fc. As to the kind of experiment: ELISA, OX40-Fc coated, VHH at 200 nM.
Procedure: as §1
Assay [6] has as its target T1, recombinant human OX40-Fc. As to the kind of experiment: ELISA, OX40-Fc coated, VHH at 0.064 nM.
Procedure: as §1
For assay [7], the target named is T1, recombinant human OX40-Fc. The assay is described as follows: ELISA, OX40-Fc coated, VHH at 8 nM.
Procedure: as §1
In assay [8] the target is T1, recombinant human OX40-Fc. The assay is described as follows: ELISA, OX40-Fc coated, VHH at 0.0128 nM.
Procedure: as §1
Assay [9] concerns the target T1, recombinant human OX40-Fc. As to the kind of experiment: ELISA, OX40-Fc coated, VHH at 0.32 nM.
Procedure: as §1
Assay [10] deals with T2, EGFR (recombinant human, BLI antigen) (human, UniProt P00533 25-645).
T2 construct: also called rh-EGFR; human EGFR
As to the kind of experiment: BLI (Octet) as in Example 1.

Assay [11] has as its target T3, Human CD40 antigen (recombinant, BLI) (human, UniProt P25942 21-193).
T3 construct: also called rh-CD40
As to the kind of experiment: BLI, VHH-His on anti-His tips, human CD40 in solution.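 Further: kinetics measured at 30 °C in PBS pH 7.2, association tracked for 200 s, then dissociation followed in PBS lacking CD40.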
Procedure: Bio-Layer Interferometry (BLI) kinetic binding analysis. […] Affinity measurements were performed with Gator equipped with Anti-Penta-His capture (HIS1K) biosensor tips. The assay was performed at 30° C. in 1×PBS buffer (Gibco®, PBS pH7.2). Samples were agitated at 1000 rpm. Prior to analysis, sensors were humidified for 15 min. […] Sensor data was collected throughout the experiments, processed, and analyzed using the Gator data analysis software.
Briefly, purified anti-CD40 VHH was tested for its binding capacity with HIS1K sensor tips. Tips were loaded using 20 μg/ml of anti-CD40 VHH. Loading proceeded for 300 sec resulting in capture levels of between 1.8 and 2 nm. […] Association was initiated and monitored for 200 sec, after which tips were transferred to 1×PBS buffer without CD40 protein in order to monitor dissociation.

T3 sequence (P25942 21-193 limits assumed): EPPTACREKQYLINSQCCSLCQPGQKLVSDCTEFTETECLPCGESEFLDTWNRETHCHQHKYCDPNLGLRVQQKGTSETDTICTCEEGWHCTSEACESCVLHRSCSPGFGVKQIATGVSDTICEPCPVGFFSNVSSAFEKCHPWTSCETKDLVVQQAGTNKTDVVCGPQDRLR

B1: pgXX88-84 (VHH, not shown: small tags and cut ends)
VHH: EVQLVESGGRLVQAGDSLKLSCTASGRTFSDYVMGWFRQVPGEGRLMVAVITPAGDTTEYADAVKGRFSISKDSAKRTVNLQMNNLKVDDTAVYYCAAGPSWIGMQFGTAEYWGQGTQVTVSS
B1: the Kd in assay [1] is < 1 pM. Further, in [1], the dissociation rate constant (koff) amounted to 1e-06 s⁻¹. Besides, in assay [1], the kon amounted to 494000 M⁻¹ s⁻¹. The OD450 in [2] is 0.324; in [3], 0.34; in assay [4], 0.29; in assay [5], 0.296; in assay [6] it was 0.085; in assay [7], 0.31. In addition, the OD450 was 0.057 in assay [8] and 0.175 in assay [9].

B2: pgEG1 (VHH, not shown: small tags and cut ends)
VHH: QVQLVESGGGLVQPGGSLRLSCAASGIIFEAEAMGWVRQAPGKQRESVAFIGSGGNTNVGWSVKGRFTISRDNAKNTLYLQMNSLRPEDTAVYYCNTHPLRSWGQGTQVTVS
In the case of B2, in [10], the Kd was 15600 pM, the koff turned out to be 0.00243 s⁻¹ and the kon turned out to be 156000 M⁻¹ s⁻¹.

B3: pgXX88-27 (VHH, not shown: small tags and cut ends)
VHH: EVQLVESGGGLVQPGGSVTLSCATSKDTFSRYHMGWFRQAAGKEREFVAAIANTGTTTDYADFVKGRFTISRDSAKNTVYLQMDSLKVEDTAMYYCVVGSQFMSYDYWGQGTQVTVSS
Take B3: the OD450 in assay [2] amounted to 1.35; in assay [3], 1.39; in assay [4] it was 1.02; in [5], 1.3; in assay [6] it was 0.115; in assay [7], 1.34. The OD450 in assay [8] was 0.155; in assay [9], 0.334.

B4: pgXX88-60 (VHH, not shown: small tags and cut ends)
VHH: EVQLVESGGGLAQPGGSLRLSCAASGFTFSNYAMGWYRQAPGKEREFVAAIDWSTNALLYGDSVKGRFTISRDNAKNTVFLQMSGLKPEDTALYYCAADRAYHTVVLGPPEGMDYWGKGTQVTVSS
In the case of B4, in assay [1], the dissociation constant (Kd) was < 1 pM. For the same molecule, the koff in assay [1] is 1e-06 s⁻¹. Moreover, the association rate constant (kon) in assay [1] amounted to 464000 M⁻¹ s⁻¹. Besides, the OD450 in [2] worked out at 0.718; in assay [3], 0.713; in assay [4] it was 0.641; in [5], 0.61; in assay [6] it was 0.284; in [7], 0.668. Moreover, the OD450 in assay [8] is 0.057; in assay [9] it was 0.596.

B5: pgDD40-HZ-58 (VHH, not shown: small tags and cut ends)
VHH: QVQLVESGGGLVQPGESLTLSCVTSGFVFSNHWMYWDRQAPGKGLEWVADINLGGEMTYYSNSVKGRFTISRDNAKNTVSLRMDNLKVEDTAVYFCAANQQTPPYGLGSREYDYDYWGQGTQVTVSS
As for B5, in assay [11], the Kd was 40.6 pM, the koff was 3.32e-05 s⁻¹ and the on-rate (kon) is 818000 M⁻¹ s⁻¹.

B6: pgXX88-16 (VHH, not shown: small tags and cut ends)
VHH: QVQLVESGGGLVQAGESLNLSCSASGSIRNNAVAWFRQGPGNQRLRVAAITNTGTTDYADSVQGRFSIARDNAENTVTLQMNSLKPEDTAIYYCKIYTLPVPISSHDDTWGQGTQVTVSS
Take B6: the OD450 in assay [2] was 1.48; in assay [3], 1.61; in assay [4], 1.4; in assay [5], 1.61; in assay [6], 0.447; in assay [7] it was 1.52. Further, the values for the OD450 in assay [8] and in assay [9] were 0.169 and 0.992, respectively.

B7: pgXX88-5 (VHH, not shown: small tags and cut ends)
VHH: QVQLVESGGGLVQAGGSLRLSCAASGGTFSTYAMGWFRQAPGKEPQFVARITWSGYTLYTEPVQGRFAISRDNAKNTVYLQMNSLKPEDTAEYFCAADSSEFRDIPNRDSRANYRYWGQGTQVTVSS
Take B7: the OD450 is 0.242 in assay [2]; 1.09 in assay [3]; 0.065 in assay [4]; 0.543 in assay [5]; 0.057 in assay [6]; 0.103 in assay [7]. Further, the OD450 in assay [8] was 0.057; in [9], 0.058.

B8: pgXX88-83 (VHH, not shown: small tags and cut ends)
VHH: EVQLVESGGGLVQTGDSLRLSCAALGGTPSTYAIGWFRQAAGKELQFVARITWNGDTWYADALPGRVAISRDNAKKTVYLQMNNLKPEDTAEYICAADVSEFRDIPNRDSRANYRYWGQGTQVTVSS
Regarding B8, the dissociation constant Kd in assay [1] is 52.6 pM. The off-rate (koff) in assay [1] stood at 2.42e-05 s⁻¹. The kon in assay [1] was 460000 M⁻¹ s⁻¹. In addition, the OD450 stood at 0.252 in assay [2]; 0.504 in assay [3]; 0.147 in assay [4]; 0.243 in assay [5]; 0.063 in assay [6]; 0.183 in assay [7]. The OD450 in [8] is 0.05; in assay [9], 0.072.

B9: pgEG12 (VHH, not shown: small tags and cut ends)
VHH: QVQLVESGGGLVQAGGSLSLSCTASRNIFSINVMSWYRQAPGKQREFVASITREDFPYYTDSVKGRFTVTRDIANNKVHLQMNSLKLEDTAVYYCNAYYRSDNYWGQGTQVTVSS
Consider B9, for which, in [10], the dissociation constant (Kd) was determined as 12500 pM, the koff turned out to be 0.00251 s⁻¹ and the kon came out at 201000 M⁻¹ s⁻¹.

B10: pgXX88-2 (VHH, not shown: small tags and cut ends)
VHH: EVQLVESGGGLVQPGGSLRLSCAASGFAFGDIPMMWVRQAPGKGREWVSSISADSATQSYADSVQDRFTISRDNAKNTLYLEMHILKPEDTAVYYCATTDRPPPGQGTQVTVSS
As for B10, the dissociation constant (Kd) in [1] amounted to 485 pM. The koff in assay [1] turned out to be 0.00023 s⁻¹. Moreover, the on-rate constant (kon) in [1] is 474000 M⁻¹ s⁻¹. Besides, the OD450 in assay [2] was 1.63; in [3] it was 1.67; in assay [4], 1.46; in assay [5] it was 1.66; in assay [6], 0.183; in assay [7], 1.63. The OD450 worked out at 0.077 in [8] and 0.719 in assay [9].

B11: pgXX88-81 (VHH, not shown: small tags and cut ends)
VHH: EVQLVESGGGLAQPGSSLRLSCTASGTVFSILSATWFRQAPGKAHEARELVAFISSDGVSMHADSVKGRFTISRDNAKSTVYLQMDNLQPEDTAAYYCKLSNSMMGMEYWGRGTQVTVSS
With B11, in assay [1], the dissociation constant (Kd) is < 1 pM. In addition, in assay [1], the off-rate (koff) worked out at 1e-06 s⁻¹. In [1], the on-rate (kon) was 549000 M⁻¹ s⁻¹. The OD450 in [2] was 0.75; in [3], 0.772; in assay [4], 0.743; in assay [5], 0.666; in assay [6] it was 0.262; in [7], 0.772. The values for the OD450 in assay [8] and in assay [9] were 0.06 and 0.617, respectively.

B12: pgEG6 (VHH, not shown: small tags and cut ends)
VHH: QVQLVESGGGLVQPGGSLRLSCVASGIIFEAEAMGWYRQAPGKQRESVAFIGSGGNTNVGWSVKGRFTISRDNAKNTVYLQMNSLKPEDTAVYYCNTHPLRSWGQGTQVTVSS
B12: in [10], the Kd is 27900 pM, the off-rate (koff) turned out to be 0.0136 s⁻¹ and the kon was determined as 489000 M⁻¹ s⁻¹.

B13: pgXX88-19 (VHH, not shown: small tags and cut ends)
VHH: EVQLVESGGGLVQAGGSLRLSCVATGRTRSSTYIMAWFRQAPGKERDFVAAISFIGGSPVYTDSVKGRFTISRVIAENTVHLQMNDLTPEDTALYYCAATDSGPLGPSGPSKYEYWGQGTQVTVSS
Regarding B13, the OD450 in assay [2] came to 1.61; in assay [3], 1.69; in [4], 1.38; in assay [5], 1.62; in assay [6] it was 0.282; in [7], 1.54. The OD450 was 0.126 in assay [8] and 0.717 in assay [9].
